# B1: Bc-12: patient derived human scFv antibody against activated αvβ3 with RGD motif in CDR-H3; cDNA ATCC PTA-6303 (protein)
# scFv: MAQVQLVQSGAEVKKPGASVKVSCKASGYTFSNYGITWVRQAPGQGLEWMGWINNGNTHYAQKFQGRVTMTTDTSTSTAYMELRSLRSDDTAVYYCARDPRGDDEPYWGQGTLVTVSSGGGGSGGGGSGGGGSEIVLTQSPLSLPVTLGQPASISCRSSQNLVYSDGNTYLSWFQQRPGQSPRRLIYKVSNRDSGVPDRFSGSGSGTDFTLKISRVEAEDIGVYYCMQGTHWPPRTFGQGTKVEIKRGLGGLVDYKDDDDK
# Key:
# [1] = test system: matrix deprived BMS breast cancer cells; assay: Apoptosis of matrix deprived breast cancer cells; type: cell-based, human; settings: 3.7 μM scFv, ultra-low-adhesion plates, 20 hrs
# Method: FIGS. 3A, 3B, 3C, 3D, 3E. scFv Bc-12 and Bc-15 inhibit αvβ3 mediated adhesive breast cancer cell functions. (A) Adhesion of BMS human breast cancer cells to fibrinogen (Fg), vitronectin (VN) or type I collagen (Col I) in the absence or presence of 3 μM Bc-12, Bc-15 or their RGE mutants Mut-12, Mut-15, compared to 200 μM GRGDSPK peptide (SEQ ID NO: 11). Protein coating concentrations: 10 μg/ml (VN, Col I) or 20 μg/ml (Fg). Adhesion time: 30 min at 37° C. (B) Effect of scFvs on haptotactic BMS cell migration toward a fibrinogen substrate (16 hrs at 37° C. in transwell chambers with or without 2 μM Bc-12, Bc-15 or their RGE mutants Mut-12 or Mut-15, compared to 200 μM GRGDSPK peptide) (SEQ ID NO: 11). (C) Effect of scFvs on breast cancer cell arrest during blood flow. Metastatic BMS cells, labeled with hydroethidine, were suspended in human blood (anticoagulated with 50 nM PPACK) and perfused over a collagen I matrix at a venous wall shear rate of 50 s^−1. Under these conditions, breast cancer cells arrest by αvβ3 mediated binding to adherent, thrombus forming platelets. Tumor cell adhesion was quantified by image acquisition at 30 predefined positions during blood flow. Left: representative images of platelet signal (thrombi, green fluorescence) and tumor cell signal (red fluorescence) at identical x,y positions. […]
# [2] = test system: BMS human breast cancer cells; assay: Tumor cell adhesion under stationary conditions; type: cell-based; settings: 3 μM scFv
# Method: FIGS. 3A, 3B, 3C, 3D, 3E. scFv Bc-12 and Bc-15 inhibit αvβ3 mediated adhesive breast cancer cell functions. (A) Adhesion of BMS human breast cancer cells to fibrinogen (Fg), vitronectin (VN) or type I collagen (Col I) in the absence or presence of 3 μM Bc-12, Bc-15 or their RGE mutants Mut-12, Mut-15, compared to 200 μM GRGDSPK peptide (SEQ ID NO: 11). Protein coating concentrations: 10 μg/ml (VN, Col I) or 20 μg/ml (Fg). Adhesion time: 30 min at 37° C. (B) Effect of scFvs on haptotactic BMS cell migration toward a fibrinogen substrate (16 hrs at 37° C. in transwell chambers with or without 2 μM Bc-12, Bc-15 or their RGE mutants Mut-12 or Mut-15, compared to 200 μM GRGDSPK peptide) (SEQ ID NO: 11). (C) Effect of scFvs on breast cancer cell arrest during blood flow. Metastatic BMS cells, labeled with hydroethidine, were suspended in human blood (anticoagulated with 50 nM PPACK) and perfused over a collagen I matrix at a venous wall shear rate of 50 s^−1. Under these conditions, breast cancer cells arrest by αvβ3 mediated binding to adherent, thrombus forming platelets. Tumor cell adhesion was quantified by image acquisition at 30 predefined positions during blood flow. Left: representative images of platelet signal (thrombi, green fluorescence) and tumor cell signal (red fluorescence) at identical x,y positions. Right: Number of arrested tumor cells in the presence of 3 μM non-function blocking anti αv scFv Bc-20 or function blocking anti αvβ3 scFvs Bc-12 or Bc-15. (D) scFv Bc-15 is internalized by human breast cancer cells and reduces cell proliferation. Left: confocal images of BMS cells incubated for 4 hrs with FITC-Bc-15 at 4° C. (binding) versus 37° C. (allowing internalization). Right: Phase contrast images of BMS cell cultures 4 days after seeding in the presence of 2 μM RGE containing scFv Mut-15, or RGD containing Bc-15. (E) Effect of scFv Bc-12 on the viability of matrix deprived BMS breast cancer cells in ultra-low-adhesion plates in the presence or absence of 3.7 μM scFv, or 14.36 μM camptothecin as apoptosis inducing control. Measurement of apoptosis was based on cytoplasmic histone-associated DNA fragments after 20 hrs.
# Cell adhesion and migration. Tumor cell adhesion under stationary conditions was analyzed as detailed earlier (19). Adhesion buffer was Hanks balanced salt solution (HBSS) pH 7.4, 0.5% BSA, 1 mM MgCl2, 0.2 mM MnCl2. For inhibition, cells were incubated for 5 min at RT either with 3 μM scFv or 200 μM GRGDSPK (SEQ ID NO: 11) peptide, then plated in the presence of inhibitor and allowed to attach for 30 min at 37° C. Haptotactic tumor cell migration toward fibrinogen was analyzed in transwell chambers as detailed earlier. Rolli, M., et al., Proc. Natl. Acad. Sci. U.S.A 100: 9482-9487, 2003. […]
molecule,measurement,setting,value
B1,viability of matrix deprived cells (apoptosis),[1],resulted in apoptotic cell death
same,adhesion to collagen type I,[2],no effect
same,attachment to vitronectin,[2],"inhibited by Bc-12 and Bc-15, but to a lesser degree"
same,adhesion to immobilized fibrinogen,[2]; 30 min at 37° C.,efficiently inhibited

# Reference: patent US7271245B2, “Methods and compositions for inhibition of metastasis” (The Scripps Research Institute, priority 2004, dated 2007)
